{"source": "paper PMC12004154", "about": "“Overexpression, Purification, and Biochemical Characterization of the vanC2 D-Ala-D-Ser Ligase from Enterococcus casseliflavus SSK and Its Inhibition by an Oxadiazole Derivative” (ACS Omega, 2025)", "key": {"[1]": {"target": "T1, vanC2 D-Ala-D-Ser ligase (EcfDdls) (Enterococcus casseliflavus, UniProt Q47720)", "T1 construct": "C-terminal 6x His-tagged EcfDdls, strain SSK, ~39 kDa", "T1 sequence (Q47720 whole entry)": "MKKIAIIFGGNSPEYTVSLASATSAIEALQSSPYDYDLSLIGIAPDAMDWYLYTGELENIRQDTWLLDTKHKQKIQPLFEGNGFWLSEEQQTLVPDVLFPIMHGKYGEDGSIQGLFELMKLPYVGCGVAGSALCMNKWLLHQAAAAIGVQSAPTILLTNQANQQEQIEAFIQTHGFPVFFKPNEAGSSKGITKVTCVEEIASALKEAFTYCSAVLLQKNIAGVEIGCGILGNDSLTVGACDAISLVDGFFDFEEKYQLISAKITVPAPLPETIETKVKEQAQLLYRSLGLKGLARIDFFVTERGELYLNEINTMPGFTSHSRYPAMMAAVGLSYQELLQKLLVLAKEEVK", "assay": "malachite green inorganic phosphate detection assay with purified enzyme", "type": "biochemical"}, "[2]": {"tested_on": "Nc1ncnc2c1ncn2[C@@H]1O[C@H](COP(=O)(O)OP(=O)(O)OP(=O)(O)O)[C@@H](O)[C@H]1O", "assay": "Michaelis-Menten kinetics (Km), inorganic phosphate detection assay", "type": "biochemical, Enterococcus casseliflavus", "conditions": "MgCl2"}, "N[C@H](CO)C(=O)O": {"tested_on": "N[C@H](CO)C(=O)O", "assay": "Michaelis-Menten kinetics (Km2), inorganic phosphate detection assay", "type": "biochemical, Enterococcus casseliflavus", "conditions": "ATP, MgCl2 subsite […] (second substrate binding site)"}, "C[C@@H](N)C(=O)O": {"tested_on": "C[C@@H](N)C(=O)O", "assay": "Michaelis-Menten kinetics (Km1), inorganic phosphate detection assay", "type": "biochemical, Enterococcus casseliflavus", "conditions": "ATP, MgCl2 subsite […] (first substrate binding site)"}}, "note": "Read-outs that look alike come from different tables or passages of the source."}
{"compound": "Cc1cc(CN2CCN(Cc3nc(C(C)C)no3)CC2)no1", "note": "[CID 45805715, 1-[(5-methyl-1,2-oxazol-3-yl)methyl]-4-{[3-(propan-2-yl)-1,2,4-oxadiazol-5-yl]methyl}piperazine]", "values": [{"measurement": "IC50", "setting": "[1]; read-out: IC50", "result": "76.7 ± 1.01", "unit": "µM"}]}
{"compound": "N[C@@H]1CON=C1O", "note": "[DCS, D-cycloserine]", "values": [{"measurement": "IC50", "setting": "[1]", "result": "313 ± 1.6", "unit": "µM"}]}
{"compound": "vanC2 D-Ala-D-Ser ligase (EcfDdls) (Enterococcus casseliflavus)", "values": [{"measurement": "Km", "setting": "[2]", "result": "24.31 ± 4.1", "unit": "µM"}, {"measurement": "Km", "setting": "N[C@H](CO)C(=O)O", "result": "800 ± 100", "unit": "µM"}, {"measurement": "Km", "setting": "C[C@@H](N)C(=O)O", "result": "1120 ± 100", "unit": "µM"}]}
